Consider three molecules from patent publication US20210340233A1 (CRESCENDO BIOLOGICS, published 2021).

In test [1] the target is T1, Cyno Serum Albumin (CSA) (cynomolgus, UniProt A2V9Z4 25-608).
T1 construct: Bought protein; also called cynomolgus serum albumin
The test can be described thus: BLI (Octet RED384), albumin amine-coupled to AR2G biosensor, 1:1 model. (BLI is a label-free optical method that tracks binding on a fibre tip over time.)
Procedure: (§1) Binding studies with human, cyno and mouse serum albumin were carried out using the FortéBio OCTET RED384 instrument. Serum albumin (HSA, CSA, MSA) were coupled to AR2G biosensors by amine coupling using the amine reagent coupling kit (2nd generation, FortéBio). Briefly AR2G biosensors were rehydrated in water and then activated using EDC/sNHS reagents over 10 minutes. The activated biosensors were dipped into wells containing diluted serum albumin (HSA, CSA, MSA) to 10 ug/ml in 10 mM sodium acetate pH 5.0 for 10 minutes before free active sites were quenched using 1M Ethanolamine pH 8.5 over 10 minutes. These were then dipped into 10 mM glycine pH 2.5 to stabilise the surface. […] Anomalous or poorly fitting curves were excluded from the analysis.

The target in test [2] is T2, Human Serum Albumin (HSA) (human, UniProt P02768 25-609).
T2 construct: Recombinant HSA from Sigma A9731 is named only for immunisation
The description is as above.
Procedure: as §1

In test [3] the target is mouse serum albumin (MSA) (mouse, UniProt P07724 25-608). The test can be described thus: BLI (Octet RED384), albumin amine-coupled to AR2G biosensor.
Sequence of mouse serum albumin (MSA) (P07724 25-608 limits assumed): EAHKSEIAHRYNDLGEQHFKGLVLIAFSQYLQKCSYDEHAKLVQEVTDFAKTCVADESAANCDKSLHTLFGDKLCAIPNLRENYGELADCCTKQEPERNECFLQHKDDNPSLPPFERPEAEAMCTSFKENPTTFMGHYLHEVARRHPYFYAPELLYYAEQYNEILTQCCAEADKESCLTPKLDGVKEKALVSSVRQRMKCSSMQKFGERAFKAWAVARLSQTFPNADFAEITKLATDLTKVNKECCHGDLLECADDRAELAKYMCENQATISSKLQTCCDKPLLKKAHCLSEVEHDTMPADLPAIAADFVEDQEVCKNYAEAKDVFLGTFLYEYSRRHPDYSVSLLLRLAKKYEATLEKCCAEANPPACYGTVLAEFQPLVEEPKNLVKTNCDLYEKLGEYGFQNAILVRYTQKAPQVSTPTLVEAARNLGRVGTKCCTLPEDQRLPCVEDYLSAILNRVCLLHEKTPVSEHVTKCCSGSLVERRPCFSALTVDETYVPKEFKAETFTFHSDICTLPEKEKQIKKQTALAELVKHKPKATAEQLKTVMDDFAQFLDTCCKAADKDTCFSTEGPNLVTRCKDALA
Procedure: as §1
Test [4] has as its target T1, Cyno Serum Albumin (CSA). The test can be described thus: BIAcore (Affinity), pH5; pH 5.
Test [5] deals with T2, Human Serum Albumin (HSA). The test can be described thus: BIAcore (Affinity), pH5; pH 5. A general note: Surface plasmon resonance follows binding to a sensor surface in real time, without labels.
The target of test [6] is T1, Cyno Serum Albumin (CSA). In words: BIAcore (Affinity), pH7; pH 7.
Test [7] has as its target T2, Human Serum Albumin (HSA). The test can be described thus: BIAcore (Affinity), pH7; pH 7.

B1: trispecific molecule (SEQ ID NO. 17) including Humabody ® 1 (bispecific antibody)
chain: EVQLVESGGGVVQPGRSLRLSCAASGFSFSGYGMHWVRQAPGKGLEWVAYISYDGSNKYYADSVKGRFTISRDNSKNTLYLQMNSLRAEDTAVYYCAKDPAWGLRLGESSSYDFDIWGQGTMVTVSSGGGGSGGGGSGGGGSGGGGSGGGGSGGGGSEVQLVESGGGLVQPGGSLRLSCAASGFTLSNYWMNWVRQAPGKGLEWVANINQDGSERYYVDSVKGRFTISRDNAKNSLYLQMNSLRAEDTAVYYCARGGEGYGVDHYGLDVSGQGTTVTVSSGGGGSGGGGSGGGGSGGGGSGGGGSGGGGSEVQLVESGGGLVQPGRSLRLSCAASGFTFHHYAMHWVRQAPGKGLEWVSGISWNGNKITYADSVKGRFTISRDNAKNSLYLQMNSLRAEDTALYYCVRDSSLFIVGAPTFEHWGRGTLVTVSSGGGGSGGGGSGGGGSGGGGS
notes: 1 at the C-terminal end; also called trivalent compound; trivalent construct
On to B1, for which, in test [1], the Kd was 102 nM, the dissociation rate constant (koff) turned out to be 0.0147 s⁻¹ and the kon was determined as 144000 M⁻¹ s⁻¹. For the same molecule, in test [2], the Kd was found to be 4.83 nM, the off-rate constant (koff) was found to be 0.00108 s⁻¹ and the association rate constant (kon) was found to be 238000 M⁻¹ s⁻¹. The binding result in test [3] is reported as “no binding (tested: top concentration 1500 nM)”.

B2: Variant of SEQ ID NO. 1 with E111→D and R115→Q (VHH)
VHH: EVQLVESGGGLVQPGRSLRLSCAASGFTFHHYAMHWVRQAPGKGLEWVSGISWNGNKITYADSVKGRFTISRDNAKNSLYLQMNSLRAEDTALYYCVRDSSLFIVGAPTFDHWGQGTLVTVSS
notes: Human single VH domain
Turning to B2, the Kd worked out at 99 nM in test [4], 13 nM in test [5], 67 nM in test [6] and 6 nM in test [7]. The dissociation rate constant (koff) in test [4] was found to be 0.0241 s⁻¹; in test [5], 0.00319 s⁻¹; in test [6] it was 0.0168 s⁻¹; in test [7], 0.00162 s⁻¹. In addition, the on-rate (kon) in test [4] stood at 244000 M⁻¹ s⁻¹; in test [5], 242000 M⁻¹ s⁻¹; in test [6], 250000 M⁻¹ s⁻¹; in test [7] it was 255000 M⁻¹ s⁻¹.

B3: Humabody ® 1 (SEQ ID NO. 1) (VHH)
VHH: EVQLVESGGGLVQPGRSLRLSCAASGFTFHHYAMHWVRQAPGKGLEWVSGISWNGNKITYADSVKGRFTISRDNAKNSLYLQMNSLRAEDTALYYCVRDSSLFIVGAPTFEHWGRGTLVTVSS
notes: Human single VH domain antibody from transgenic mice, not camelid; also called Humabody ® 1 VH; Humabody ® 1-ctag
B3: the Kd amounted to 96 nM in test [4], 12 nM in test [5], 33 nM in test [6] and 3 nM in test [7].

One may read the Kd as the free concentration of one partner at which half of the binding sites on the other are occupied at equilibrium, for simple one-to-one binding. Low values mean higher affinity, high ones lower affinity. As usually defined, the koff is the rate constant with which the complex falls apart. Broadly, the kon is a measure of how fast the partners come together.
